Columns and labels:
[1] = biological target: the molecule itself; test: SAXS Guinier Rg, model with 1x N-glycosylation
[2] = biological target: the molecule itself; test: SAXS; concentration series 0.27-9.15 mg/mL, 3 to 5% glycerol added; KD by nonlinear regression of experimental Rg^2 versus concentration (Equation 4) with theoretical Rg of monomer and dimer for zero to two N-glycosylations; dimer to monomers
[3] = biological target: the molecule itself; test: static light scattering; DynaPro NanoStar, 20 °C, quartz cuvette, several protein concentrations; molecular mass increased with protein concentration; no significant change of hydrodynamic radii and molecular mass in the presence of Ca2+; monomer to dimer

B1: PTX-like domain of the human ADGRG4 (residues 1-240) (domain or fragment, UniProt Q8IZF6-1 28-240, looked up)
chain: LKGKKLDFFGRGDTYVSLIDTIPELSRFTACIDLVFMDDNSRYWMAFSYITNNALLGREDIDLGLAGDHQQLILYRLGKTFSIRHHLASFQWHTICLIWDGVKGKLELFLNKERILEVTDQPHNLTPHGTLFLGHFLKNESSEVKSMMRSFPGSLYYFQLWDHILENEEFMKCLDGNIVSWEEDVWLVNKIIPTVDRTLRCFVPENMTIQEKS
modifications: N-glycosylated (heterogeneous; putative N-glycosylation sites N166 and N233)
notes: signal peptide in the construct: human ADGRG4 (GPR112) residues 1-240, UniProt Q8IZF6-1; residues 1 to 25 are a signal peptide and are not present in the secreted protein; residues 26-162 and 176-231 are resolved in the crystal structure; Expected monomer mass printed as 30.5 kDa; also called G4-PTX; ADGRG4-PTX
- Kd [1]: 20 µM
- Kd [2]: 7 to 32 µM
- stoichiometry N [3]: 2

— PMC10687090, “The dimerized pentraxin-like domain of the adhesion G protein–coupled receptor 112 (ADGRG4) suggests function in sensing mechanical forces” (The Journal of Biological Chemistry, 2023)
